# In IntAct's records for PubMed 27462807:
# B1: TP53-binding protein 1 (Homo sapiens), Q12888 (parent)
# chain: MDPTGSQLDSDFSQQDTPCLIIEDSQPESQVLEDDSGSHFSMLSRHLPNLQTHKENPVLDVVSNPEQTAGEERGDGNSGFNEHLKENKVADPVDSSNLDTCGSISQVIEQLPQPNRTSSVLGMSVESAPAVEEEKGEELEQKEKEKEEDTSGNTTHSLGAEDTASSQLGFGVLELSQSQDVEENTVPYEVDKEQLQSVTTNSGYTRLSDVDANTAIKHEEQSNEDIPIAEQSSKDIPVTAQPSKDVHVVKEQNPPPARSEDMPFSPKASVAAMEAKEQLSAQELMESGLQIQKSPEPEVLSTQEDLFDQSNKTVSSDGCSTPSREEGGCSLASTPATTLHLLQLSGQRSLVQDSLSTNSSDLVAPSPDAFRSTPFIVPSSPTEQEGRQDKPMDTSVLSEEGGEPFQKKLQSGEPVELENPPLLPESTVSPQASTPISQSTPVFPPGSLPIPSQPQFSHDIFIPSPSLEEQSNDGKKDGDMHSSSLTVECSKTSEIEPKNSPEDLGLSLTGDSCKLMLSTSEYSQSPKMESLSSHRIDEDGENTQIEDTEPMSPVLNSKFVPAENDSILMNPAQDGEVQLSQNDDKTKGDDTDTRDDISILATGCKGREETVAEDVCIDLTCDSGSQAVPSPATRSEALSSVLDQEEAMEIKEHHPEEGSSGSEVEEIPETPCESQGEELKEENMESVPLHLSLTETQSQGLCLQKEMPKKECSEAMEVETSVISIDSPQKLAILDQELEHKEQEAWEEATSEDSSVVIVDVKEPSPRVDVSCEPLEGVEKCSDSQSWEDIAPEIEPCAENRLDTKEEKSVEYEGDLKSGTAETEPVEQDSSQPSLPLVRADDPLRLDQELQQPQTQEKTSNSLTEDSKMANAKQLSSDAEAQKLGKPSAHASQSFCESSSETPFHFTLPKEGDIIPPLTGATPPLIGHLKLEPKRHSTPIGISNYPESTIATSDVMSESMVETHDPILGSGKGDSGAAPDVDDKLCLRMKLVSPETEASEESLQFNLEKPATGERKNGSTAVAESVASPQKTMSVLSCICEARQENEARSEDPPTTPIRGNLLHFPSSQGEEEKEKLEGDHTIRQSQQPMKPISPVKDPVSPASQKMVIQGPSSPQGEAMVTDVLEDQKEGRSTNKENPSKALIERPSQNNIGIQTMECSLRVPETVSAATQTIKNVCEQGTSTVDQNFGKQDATVQTERGSGEKPVSAPGDDTESLHSQGEEEFDMPQPPHGHVLHRHMRTIREVRTLVTRVITDVYYVDGTEVERKVTEETEEPIVECQECETEVSPSQTGGSSGDLGDISSFSSKASSLHRTSSGTSLSAMHSSGSSGKGAGPLRGKTSGTEPADFALPSSRGGPGKLSPRKGVSQTGTPVCEEDGDAGLGIRQGGKAPVTPRGRGRRGRPPSRTTGTRETAVPGPLGIEDISPNLSPDDKSFSRVVPRVPDSTRRTDVGAGALRRSDSPEIPFQAAAGPSDGLDASSPGNSFVGLRVVAKWSSNGYFYSGKITRDVGAGKYKLLFDDGYECDVLGKDILLCDPIPLDTEVTALSEDEYFSAGVVKGHRKESGELYYSIEKEGQRKWYKRMAVILSLEQGNRLREQYGLGPYEAVTPLTKAADISLDNLVEGKRKRRSNVSSPATPTASSSSSTTPTRKITESPRASMGVLSGKRKLITSEEERSPAKRGRKSATVKPGAVGAGEFVSPCESGDNTGEPSALEEQRGPLPLNKTLFLGYAFLLTMATTSDKLASRSKLPDGPTGSSEEEEEFLEIPPFNKQYTESQLRAGAGYILEDFNEAQCNTAYQCLLIADQHCRTRKYFLCLASGIPCVSHVWVHDSCHANQLQNYRNYLLPAGYSLEEQRILDWQPRENPFQNLKVLLVSDQQQNFLELWSEILMTGGAASVKQHHSSAHNKDIALGVFDVVVTDPSCPASVLKCAEALQLPVVSQEWVIQCLIVGERIGFKQHPKYKHDYVSH
# Variants of: B1
# Conditions: with H2BC10, P62807
row,effect of a mutation on the interaction,Variant
1,decreasing interaction,K1628C

# Variants of: B1
# Conditions: with H2BC10, P62807
# Remark: another data set of the same source
row,effect of a mutation on the interaction,Variant
1,with no effect,T1609C
